The target of experiment [1] is Abeta(1-40) monomer in 0.1% NH4OH (human). As to the kind of experiment: dot blot, antigen dilution series on nitrocellulose, antibody 0.2 µg/ml, densitometry.
For experiment [2], the target named is Abeta(1-40) monomer in 0.1% NaOH (human). The description is as above.
Experiment [3] deals with Abeta(1-42) fibril preparation (human) (UniProt P05067). Described as above.
Experiment [4] deals with Abeta(1-42) globulomer (human) (UniProt P05067). Described as above.
The target in experiment [5] is Abeta(1-42) monomer in 0.1% NH4OH (human). The description is as above.
In experiment [6] the target is Abeta(1-42) monomer in 0.1% NaOH (human). The description is as above.
Experiment [7] deals with platelet factor 4 (PF-4) in Cynomolgus monkey plasma (Cynomolgus (Macaca fascicularis)). Description: sandwich-ELISA with cynomolgus plasma; reference antibody. (ELISA stands for enzyme-linked immunosorbent assay.)
The target of experiment [8] is human platelet factor 4 (PF-4) in HPF4-spiked human plasma (human) (UniProt P02776). Description: sandwich-ELISA with HPF4-spiked human plasma; reference antibody.
Experiment [9] addresses platelet factor 4 (PF-4) in Cynomolgus monkey plasma (Cynomolgus (Macaca fascicularis)). As to the kind of experiment: aligned sandwich-ELISA with cynomolgus plasma; reference antibody.
Experiment [10] addresses human platelet factor 4 (PF-4) in HPF4-spiked human plasma (human) (UniProt P02776). As to the kind of experiment: aligned sandwich-ELISA with HPF4-spiked human plasma; reference antibody.
Experiment [11] addresses platelet factor 4 (PF-4) in Cynomolgus monkey plasma (Cynomolgus (Macaca fascicularis)). As to the kind of experiment: sandwich-ELISA, antibody coated at 10 µg/ml, cynomolgus plasma dilutions 1:3.16 to 1:3160, OD450 against log dilution.
The target in experiment [12] is human platelet factor 4 (PF-4) in HPF4-spiked human plasma (human) (UniProt P02776). Description: sandwich-ELISA, antibody coated at 10 µg/ml, HPF4-spiked human plasma dilutions 1:3.16 to 1:3160, OD450 against log dilution.
Experiment [13] addresses platelet factor 4 (PF-4) in Cynomolgus monkey plasma (Cynomolgus (Macaca fascicularis)). As to the kind of experiment: aligned sandwich-ELISA, antibody 10 to 10000 ng/ml captured by anti-mouse IgG (Fc), cynomolgus plasma 1:100, OD450 against log concentration.
Experiment [14] addresses human platelet factor 4 (PF-4) in HPF4-spiked human plasma (human) (UniProt P02776). Description: aligned sandwich-ELISA, antibody 10 to 10000 ng/ml captured by anti-mouse IgG (Fc), HPF4-spiked human plasma 1:10, OD450 against log concentration.
Experiment [15] has as its target platelet factor 4 (PF-4) in Cynomolgus monkey plasma (Cynomolgus (Macaca fascicularis)). Description: aligned sandwich-ELISA: antibody dilution series captured by coated anti-mouse IgG (Fc), cynomolgus plasma 1:100, bound PF-4 detected with rabbit anti-HPF4 and anti-rabbit-POD.
For experiment [16], the target named is human platelet factor 4 (PF-4) in HPF4-spiked human plasma (human) (UniProt P02776). As to the kind of experiment: aligned sandwich-ELISA: antibody dilution series captured by coated anti-mouse IgG (Fc), HPF4-spiked human plasma 1:10, bound PF-4 detected with rabbit anti-HPF4 and anti-rabbit-POD.

Chain of human platelet factor 4 (PF-4) in HPF4-spiked human plasma (human) (P02776 32-101): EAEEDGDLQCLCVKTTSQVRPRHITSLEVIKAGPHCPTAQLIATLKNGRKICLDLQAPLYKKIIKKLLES
Chain of platelet factor 4 (PF-4) in Cynomolgus monkey plasma (Cynomolgus (Macaca fascicularis)) (chain, as listed by the source): as the sequence (P02776 32-101) above, with I64V counted along it
Chain of Abeta(1-40) monomer in 0.1% NH4OH (human) (peptide, as listed by the source): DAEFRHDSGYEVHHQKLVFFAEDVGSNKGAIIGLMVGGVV
Chain of Abeta(1-42) monomer in 0.1% NaOH (human) (peptide, as listed by the source): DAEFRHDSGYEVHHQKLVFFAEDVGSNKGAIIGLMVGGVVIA

Turning to “Anti-Abeta monoclonal antibody clone 6E10 (Covance cat. no. SIG-39320)”, the dot blot ratio (recognition of Abeta(20-42) globulomer relative to this Abeta form) in [1] is 3; in [2], 20; in experiment [3], 29; in [4], 0.09; in experiment [5] it was 10; in experiment [6], 10.
Broadly, the EC50 (read off the curve) is the concentration at which the effect is half-maximal. For “Anti-HPF4 monoclonal antibody (Abcam Cat. No. ab49735)”, the Ratio HPF4/aAbeta antibody (AUC of anti-HPF4 over AUC of this antibody) in [7], in experiment [8], in experiment [9] and in experiment [10] was 1 each time. Also, the Area Under Curve in [11] came out at 2.68; in experiment [12] it was 1.99; in experiment [13], 4.78; in [14], 3.84. The values for the EC50 (read off the curve) in experiment [15] and in experiment [16] were 0.05 µg/mL and 0.07 µg/mL, respectively.
As to “Monoclonal antibody clone mIgG2a (negative control)”, the Area Under Curve in experiment [11] turned out to be 0.005; in experiment [12], 0.006; in [13], 0.015; in [14], 0.033.

The values above are taken from patent US20140227291A1.
